Measured values as given in patent publication US20180179267A1 (published 2018).

T1: LukGH_H19
T1 chain 1: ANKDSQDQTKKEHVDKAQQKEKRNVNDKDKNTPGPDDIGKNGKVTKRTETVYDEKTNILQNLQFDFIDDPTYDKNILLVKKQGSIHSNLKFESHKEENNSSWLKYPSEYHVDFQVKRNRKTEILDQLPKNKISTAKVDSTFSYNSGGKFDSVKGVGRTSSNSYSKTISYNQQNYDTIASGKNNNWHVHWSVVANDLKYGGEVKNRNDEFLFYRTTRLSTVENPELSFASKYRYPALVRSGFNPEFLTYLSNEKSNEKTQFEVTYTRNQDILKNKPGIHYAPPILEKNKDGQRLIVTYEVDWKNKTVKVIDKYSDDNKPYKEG
T1 chain 2: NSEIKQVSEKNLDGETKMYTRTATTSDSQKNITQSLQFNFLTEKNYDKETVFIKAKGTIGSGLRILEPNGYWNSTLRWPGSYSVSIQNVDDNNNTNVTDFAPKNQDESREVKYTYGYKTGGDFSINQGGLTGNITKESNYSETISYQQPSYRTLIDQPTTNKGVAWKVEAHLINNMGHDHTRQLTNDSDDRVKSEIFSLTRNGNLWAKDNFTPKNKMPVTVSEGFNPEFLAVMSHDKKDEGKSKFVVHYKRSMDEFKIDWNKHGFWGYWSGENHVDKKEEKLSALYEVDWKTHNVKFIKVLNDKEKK

T2: LukGH_MSHR1132
T2 chain 1: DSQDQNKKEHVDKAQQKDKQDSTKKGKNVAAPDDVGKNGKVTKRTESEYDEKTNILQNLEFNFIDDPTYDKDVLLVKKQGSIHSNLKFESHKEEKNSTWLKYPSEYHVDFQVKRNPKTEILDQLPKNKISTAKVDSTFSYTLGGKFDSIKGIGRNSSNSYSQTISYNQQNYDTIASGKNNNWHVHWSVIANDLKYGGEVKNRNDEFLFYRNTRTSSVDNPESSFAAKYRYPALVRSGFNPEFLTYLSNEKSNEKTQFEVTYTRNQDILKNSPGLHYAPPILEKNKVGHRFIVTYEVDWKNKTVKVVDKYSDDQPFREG
T2 chain 2: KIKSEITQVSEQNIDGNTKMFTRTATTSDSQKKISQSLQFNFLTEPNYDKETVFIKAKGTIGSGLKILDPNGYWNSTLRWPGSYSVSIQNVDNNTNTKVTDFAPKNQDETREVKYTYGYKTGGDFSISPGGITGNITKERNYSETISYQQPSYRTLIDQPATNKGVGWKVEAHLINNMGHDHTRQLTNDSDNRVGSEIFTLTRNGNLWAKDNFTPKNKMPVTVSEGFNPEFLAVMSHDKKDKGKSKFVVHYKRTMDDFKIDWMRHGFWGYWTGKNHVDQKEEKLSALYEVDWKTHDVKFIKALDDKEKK

T3: LukG_TCH1516
T3 chain: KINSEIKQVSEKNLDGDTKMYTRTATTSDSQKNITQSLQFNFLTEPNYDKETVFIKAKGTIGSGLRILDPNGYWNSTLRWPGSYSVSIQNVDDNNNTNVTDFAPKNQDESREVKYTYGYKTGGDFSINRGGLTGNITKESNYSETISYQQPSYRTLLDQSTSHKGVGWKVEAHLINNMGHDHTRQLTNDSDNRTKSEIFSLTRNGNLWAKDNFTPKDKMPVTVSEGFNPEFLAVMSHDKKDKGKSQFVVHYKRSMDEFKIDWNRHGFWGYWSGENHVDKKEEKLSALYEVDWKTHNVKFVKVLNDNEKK

T4: LukGH_MRSA252
T4 chain 1: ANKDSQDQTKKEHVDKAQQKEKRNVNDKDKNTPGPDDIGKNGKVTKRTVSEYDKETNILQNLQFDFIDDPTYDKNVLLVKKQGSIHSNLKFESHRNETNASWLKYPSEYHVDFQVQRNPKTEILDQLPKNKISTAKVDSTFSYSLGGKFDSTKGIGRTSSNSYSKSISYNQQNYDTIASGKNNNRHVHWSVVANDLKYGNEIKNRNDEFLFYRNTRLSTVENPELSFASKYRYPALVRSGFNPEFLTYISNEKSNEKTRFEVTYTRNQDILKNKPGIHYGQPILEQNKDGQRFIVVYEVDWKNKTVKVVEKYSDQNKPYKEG
T4 chain 2: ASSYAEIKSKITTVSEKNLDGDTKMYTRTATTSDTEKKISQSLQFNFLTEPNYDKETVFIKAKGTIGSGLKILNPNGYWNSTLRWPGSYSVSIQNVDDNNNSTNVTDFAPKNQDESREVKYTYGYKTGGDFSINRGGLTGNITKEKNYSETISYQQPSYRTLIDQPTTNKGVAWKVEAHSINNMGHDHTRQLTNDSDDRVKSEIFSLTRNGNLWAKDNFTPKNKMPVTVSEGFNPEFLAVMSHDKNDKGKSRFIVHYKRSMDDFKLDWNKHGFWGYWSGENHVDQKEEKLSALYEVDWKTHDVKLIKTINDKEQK

T5: LukGH of S. aureus USA300 TCH1516 (UniProt Q2FFA2 28-351; P21224 30-338)
T5 chain 1: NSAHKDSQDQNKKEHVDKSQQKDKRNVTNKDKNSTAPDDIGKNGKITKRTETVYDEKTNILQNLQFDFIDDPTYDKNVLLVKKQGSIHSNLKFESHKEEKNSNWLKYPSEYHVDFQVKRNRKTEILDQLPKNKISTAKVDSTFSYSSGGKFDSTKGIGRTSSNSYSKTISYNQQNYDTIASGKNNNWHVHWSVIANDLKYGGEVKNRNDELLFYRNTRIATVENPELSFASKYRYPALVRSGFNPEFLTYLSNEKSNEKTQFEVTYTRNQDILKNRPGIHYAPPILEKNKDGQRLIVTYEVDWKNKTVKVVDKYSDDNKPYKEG
T5 chain 2: T3 chain

B1: AB-31 (antibody, V domains shown)
VH: EVQLVESGGGLVQPGRSLRLSCAASGFTFYDYNMHWVRQAPGKGLEWVSGISWNSGSIAYADSVKGRFTISRDNAKNSLYLQMNSLRAEDTALYYCAKAQKGTAFDIWGQGTMVTVSS
VL: DIQMTQSPSSLSASVGDRVTITCQASQDITNYLNWYQQKPGKAPKLLIYDASNLETGVPSRFSGSGSGTDFTFTISSLQPEDIATYYCQQYPVYPPTFGGGTKVEIKR
B2: AB-30-3 (antibody, V domains shown)
VH: QVQLVQSGAEVKKPGSSVKVSCKASGGTFSSYAISWVRQAPGQGLEWMGVIEPIFGFANYAQKFQGRVTITADESTSTAYMELSSLRSEDTAVYYCARDAGCSSTSCHKDVYFDYWGQGTLVTVSS
VL: DIQMTQSPSSLSASVGDRVTITCRASQSISSYLNWYQQKPGKAPKLLIYGASSLQSGVPSRFSGSGSGTDFTLTISSLQPEDFATYYCQQAYYPPWTFGGGTKVEIKR

Legend:
LukGH_H19 = target: T1, LukGH_H19; experiment: ForteBio
LukGH_MSHR1132 = target: T2, LukGH_MSHR1132; experiment: ForteBio
LukG_TCH1516 [1] = target: T3, LukG_TCH1516; experiment: ForteBio
LukGH_MRSA252 = target: T4, LukGH_MRSA252; experiment: ForteBio
[2] = target: T5, LukGH of S. aureus USA300 TCH1516; experiment: ForteBio
LukG_TCH1516 [3] = target: T3, LukG_TCH1516; experiment: MSD; Fab
[4] = target: T5, LukGH of S. aureus USA300 TCH1516; experiment: MSD; Fab

Binder | Kd (LukGH_H19) [nM] | Kd (LukGH_MSHR1132) [nM] | Kd (LukG_TCH1516 [1]) [nM] | Kd (LukGH_MRSA252) [nM] | Kd [2] [nM] | Kd (LukG_TCH1516 [3]) [nM] | Kd [4] [nM]
B1 | 0.24 | 0.25 | 9.7 | 0.25 | < 0.1 | 0.12 | 0.00052
B2 | 0.22 | 0.39 | 15.5 | 0.28 | 0.24 | 0.046 | 0.0005
